Data as given in the supplement of paper PMC9732359.
± gives the uncertainty stated by the source.

Assay: protein stability index of a GFP-peptide fusion (yeast GPS) (PSI 1-4); higher = more stable; sorted into four equal gates, so the index is relative within each strain
Conditions: san1∆
In short: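 Plasmids in a pooled yeast library fused tiled 17-residue yeast protein peptides downstream of GFP and also expressed Cherry. Mid-log cultures grown without leucine were sorted into four equal gates by GFP/Cherry fluorescence ratio. Each gate's plasmids were PCR-amplified and Illumina-sequenced, and reads were matched to strains by barcodes. The protein stability index is derived by multiplying each gate's read frequency by its gate number and summing the results.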
With HVRCGTAFALGIACAGK [RPN2] the protein stability index was 1.46 ± 0.23.

Same assay, conditions: ubr1∆
Work on GLDKFSNIDIRVRVTGG [RPS16A] yielded a protein stability index of 1.54 ± 0.055.
Sequence GLFEKSTVSANHSNNDI [BRN1] has a protein stability index of 3.11 ± 0.12.
GLIPADATFAGHSLGEY [FAS1] showed a protein stability index of 3.03 ± 0.059.
GLNRHYYSLNIDYHKTA [RPN11] gave a protein stability index of 2.61 ± 0.14.
In the case of GLPLGIAEEKMWSQFQT [YGR119C/NUP57], the protein stability index is reported as 3.05 ± 0.19.
GLPTDAYVAIEQVKDDG [RPN8] showed a protein stability index of 2.34 ± 0.08.
With GLPVGAIMNCADNSGAR [RPL23A] the protein stability index was 1.83 ± 0.055.
With GLQDEIMKIGGIKLQMQ [SMC4] the protein stability index was 3.17 ± 0.089.
Work on GLQGSGKTTSCTKLAVY [SRP54] yielded a protein stability index of 2.66 ± 0.089.
For GLSTDHTTQIVNLEDNT [YML103C/NUP188], the protein stability index was 3.04 ± 0.047.
Sequence GLTQLYKKSTENESTNY [MED7] has a protein stability index of 2.96 ± 0.05.
For GMCQLYFWHKIWRKVPG [SNU114], the protein stability index was 2.14 ± 0.048.
GNITRGLAVGLALINYG [RPN2] showed a protein stability index of 1.51 ± 0.086.
With GNKNQFEPSISRSNFQG [LRP1] the protein stability index was 2.34 ± 0.21.
In the case of GNLYSKVMNNSFKLCTL [YML103C/NUP188], the protein stability index is reported as 3.07 ± 0.22.
Sequence GNPGLPQYQYQRRYVIK [ITC1] has a protein stability index of 3.34 ± 0.095.
GNPLLYDGVERVSLQDI [QCR2] gave a protein stability index of 2.19 ± 0.17.
In the case of GPDTKGQLEDFDSELIH [SMC3], the protein stability index is reported as 3.62 ± 0.22.
With GPKSGSTMGTPTVHNST [PGD1] the protein stability index was 3.12 ± 0.06.
With GPLAEEPIYGVQYKLLS [SNU114] the protein stability index was 3.17 ± 0.13.
In the case of GPPQSLYGLNLTLRKAK [FAS1], the protein stability index is reported as 2.42 ± 0.051.
GPVRENDILVLMESERE [RPS28A] showed a protein stability index of 2.81 ± 0.092.
Work on GQIITLFSSRRLQAKRL [RMP1] yielded a protein stability index of 2.65 ± 0.064.
Work on GQLVELYVPRKCSATNR [RPS21A] yielded a protein stability index of 1.38 ± 0.069.
With GRGLWNPSYPGMMSTTG [YJL039C/NUP192] the protein stability index was 3.1 ± 0.097.
For GRGRGRGRPPKARNGLD [SNF2], the protein stability index was 3.33 ± 0.057.
Work on GRILKWLWPLCRGELKA [CDC53] yielded a protein stability index of 1.13 ± 0.045.
For GRIPNVPVIVKARFVSK [RPL28], the protein stability index was 2.648 ± 0.021.
Work on GRNNGKKLKAVRIIKHT [RPS5] yielded a protein stability index of 2.81 ± 0.082.
Sequence GRPRGRPKKVKLEGSEN [SNF2] has a protein stability index of 3.65 ± 0.17.
With GSAEFNVKYRAVVFKPF [RPB7] the protein stability index was 2.85 ± 0.17.
GSCTGKFGYILCVLDYD [RPB7] showed a protein stability index of 2.31 ± 0.055.
Work on GSFKRVKPQYDEIHIPA [BRR2] yielded a protein stability index of 2.46 ± 0.11.
Sequence GSGAPVYLTAVLEYLAA [HTA1] has a protein stability index of 1.75 ± 0.045.
Sequence GSHLSETEFPPFREFLQ [ECM29] has a protein stability index of 2.87 ± 0.058.
Work on GSIAMARVLFDDMVEYE [CYT1] yielded a protein stability index of 3.35 ± 0.097.
GSLALLKLSMADYNGAL [POP4] showed a protein stability index of 2.38 ± 0.037.
In the case of GSSDEDLKSLNVRDDMK [SSN2], the protein stability index is reported as 3.2 ± 0.11.
Work on GSVELSTGDYTFTIQLL [YML103C/NUP188] yielded a protein stability index of 2.17 ± 0.051.
With GSYLCTSSTPSPIKNGS [YOR098C/NUP1] the protein stability index was 2.97 ± 0.04.
GTGNNSAVKRLLHVAVS [RPN2] gave a protein stability index of 1.58 ± 0.15.
For GTQLATLKNRGLPLGIA [YGR119C/NUP57], the protein stability index was 2.23 ± 0.031.
GVAASQGSMSERPPYIL [SIR2] gave a protein stability index of 3.16 ± 0.085.
Work on GVGILYKGMASNDERIV [BRR2] yielded a protein stability index of 3.15 ± 0.09.
GVMLWKEFDETIFNLPK [FAS1] showed a protein stability index of 2.81 ± 0.2.
GVMSLLQKSSKSMITSE [YAR002W/NUP60] showed a protein stability index of 2.95 ± 0.063.
GVPNYLVQLEPHLFVNG [SSN2] showed a protein stability index of 1.96 ± 0.12.
In the case of GVRDINCVNDVLEFCKD [POP1], the protein stability index is reported as 3.09 ± 0.26.
GVRPFGVSLLIAGHDEF [PRE8] showed a protein stability index of 1.93 ± 0.075.
For GVSIENENKVIIELPNE [SRB4], the protein stability index was 2.6 ± 0.06.
GVSLLIAGHDEFNGFSL [PRE8] showed a protein stability index of 2.07 ± 0.093.
Sequence GVSSPGFSPTSPTYSPT [RPO21] has a protein stability index of 3.05 ± 0.055.
For GWKYEDVVAKLEAKRKV [RPL16A], the protein stability index was 1.88 ± 0.046.
With GWLGALTMANLPSWSLG [ARP7] the protein stability index was 2.92 ± 0.057.
Sequence GWPKLQLGPQTPAFNTA [ECM29] has a protein stability index of 1.68 ± 0.2.
GYDPALLNILSGLPTCD [RPN2] gave a protein stability index of 2.55 ± 0.1.
GYDPIVSTRAIDLLWKG [PRP28] gave a protein stability index of 2.6 ± 0.079.
In the case of GYFGKVGMRYFHKQQAH [RPL28], the protein stability index is reported as 2.84 ± 0.05.
For GYLDDSEILIISSLMFD [IRR1], the protein stability index was 2.75 ± 0.046.
In the case of HAADSQNNKPSFVFGQA [YLR335W/NUP2], the protein stability index is reported as 3.15 ± 0.093.
HAIIIFGYPETIANSII [YMR153W/NUP53] gave a protein stability index of 2.92 ± 0.046.
In the case of HCEDKDYKTAFSYFFES [RPN6], the protein stability index is reported as 3.02 ± 0.055.
In the case of HDAIFSIYKYIHLNELL [SNF12], the protein stability index is reported as 2.01 ± 0.038.
In the case of HDWLNALDGDLIELLEK [YCG1], the protein stability index is reported as 3.55 ± 0.11.
Work on HEDEKLIPTIFRYITTW [PRP8] yielded a protein stability index of 2.23 ± 0.033.
HEFFIANHDDQDDIDEM [SRP68] showed a protein stability index of 3.23 ± 0.062.
With HEFTLSFTYELKQHNQN [BRR2] the protein stability index was 2.43 ± 0.073.
With HEILSEPAIEEENGDSI [MED1] the protein stability index was 3.26 ± 0.14.
HELREKERISVAAASKI [PRE2] gave a protein stability index of 2.22 ± 0.03.
HELSSSHTSLVKIGKFI [SRB8] showed a protein stability index of 1.63 ± 0.052.
Sequence HETTFMTAMRLMLKKLK [YML031W/NDC1] has a protein stability index of 2.5 ± 0.069.
HFGHCFNITDNGVRALF [GRR1] showed a protein stability index of 2.64 ± 0.1.
HFTSPIRRYCDVVAHRQ [DIS3] showed a protein stability index of 1.84 ± 0.073.
With HGMFSSASVRALIENWA [FAS1] the protein stability index was 1.76 ± 0.064.
HGNLASCHGHFGHLKLA [RPO31] gave a protein stability index of 1.2 ± 0.033.
Work on HHRDSNFPDEDDDDSRK [SKP1] yielded a protein stability index of 3.5 ± 0.18.
HHYEECAERVKIQQQQP [QCR6] showed a protein stability index of 3.13 ± 0.15.
Sequence HILRISFLDRKRAKEFI [SIN4] has a protein stability index of 2.4 ± 0.049.
For HISFNFSMLQMAFEASA [BRR2], the protein stability index was 1.24 ± 0.06.
Sequence HIVYSLLVNPDIDLETY [YML103C/NUP188] has a protein stability index of 2.45 ± 0.035.
In the case of HKQVYPLRMETIPILES [DSN1], the protein stability index is reported as 2.14 ± 0.038.
For HLLIKIIRQLSELNEGN [SRB8], the protein stability index was 1.97 ± 0.053.
With HLLPRNEWIKAQEDVPY [QCR7] the protein stability index was 1.88 ± 0.046.
With HLLVKQGDGLLTKLQKY [RPN7] the protein stability index was 3 ± 0.16.
For HLLYPPHIIAVACLFIT [SSN8], the protein stability index was 1.34 ± 0.052.
HLNHYILLRYHHNDISN [YCG1] gave a protein stability index of 1.33 ± 0.063.
HLSTYLKVYKVGDIVDI [RPL21A] showed a protein stability index of 1.16 ± 0.065.
In the case of HLVELLLVFRNADLDLD [YDL116W/NUP84], the protein stability index is reported as 2.5 ± 0.13.
HLVSNELEQLSSEALEA [RPL10] gave a protein stability index of 1.39 ± 0.031.
Work on HMMKRWGYQMVWAPTQK [POP1] yielded a protein stability index of 2.56 ± 0.054.
For HNAKNGTLDKNSQTVSG [SNF2], the protein stability index was 2.96 ± 0.16.
For HNGREGSIEEPELNVSL [MCD1], the protein stability index was 3.37 ± 0.071.
In the case of HPIMETIVNDSNYDWLF [RPN9], the protein stability index is reported as 2.66 ± 0.052.
HPYLFEGAEPGPPYTTD [ISW2] gave a protein stability index of 3.18 ± 0.053.
For HQHIGKASTISRGAVSG [RPL2A], the protein stability index was 3.12 ± 0.05.
Sequence HQPITSEQKMKEDADLK [SIR4] has a protein stability index of 3.26 ± 0.073.
Work on HRQEIFKDSPMDLFMST [GAL11] yielded a protein stability index of 2.87 ± 0.076.
HSDRYHRVAENWRKQKG [RPL32] showed a protein stability index of 2.6 ± 0.23.
HSFIKMLQMKGKLLRNY [SIR2] gave a protein stability index of 2.15 ± 0.067.
For HTSSGSVSFKVFLLLQA [BRR2], the protein stability index was 1.62 ± 0.056.
Work on HVRCGTAFALGIACAGK [RPN2] yielded a protein stability index of 1.53 ± 0.076.
